Results published in paper PMC4041422, “Rapid kinetics of iron responsive element (IRE) RNA/iron regulatory protein 1 and IRE-RNA/eIF4F complexes respond differently to metal ions”.

T1: IRP1 (iron regulatory protein 1) (rabbit, UniProt Q01059 1-889)
T1 sequence: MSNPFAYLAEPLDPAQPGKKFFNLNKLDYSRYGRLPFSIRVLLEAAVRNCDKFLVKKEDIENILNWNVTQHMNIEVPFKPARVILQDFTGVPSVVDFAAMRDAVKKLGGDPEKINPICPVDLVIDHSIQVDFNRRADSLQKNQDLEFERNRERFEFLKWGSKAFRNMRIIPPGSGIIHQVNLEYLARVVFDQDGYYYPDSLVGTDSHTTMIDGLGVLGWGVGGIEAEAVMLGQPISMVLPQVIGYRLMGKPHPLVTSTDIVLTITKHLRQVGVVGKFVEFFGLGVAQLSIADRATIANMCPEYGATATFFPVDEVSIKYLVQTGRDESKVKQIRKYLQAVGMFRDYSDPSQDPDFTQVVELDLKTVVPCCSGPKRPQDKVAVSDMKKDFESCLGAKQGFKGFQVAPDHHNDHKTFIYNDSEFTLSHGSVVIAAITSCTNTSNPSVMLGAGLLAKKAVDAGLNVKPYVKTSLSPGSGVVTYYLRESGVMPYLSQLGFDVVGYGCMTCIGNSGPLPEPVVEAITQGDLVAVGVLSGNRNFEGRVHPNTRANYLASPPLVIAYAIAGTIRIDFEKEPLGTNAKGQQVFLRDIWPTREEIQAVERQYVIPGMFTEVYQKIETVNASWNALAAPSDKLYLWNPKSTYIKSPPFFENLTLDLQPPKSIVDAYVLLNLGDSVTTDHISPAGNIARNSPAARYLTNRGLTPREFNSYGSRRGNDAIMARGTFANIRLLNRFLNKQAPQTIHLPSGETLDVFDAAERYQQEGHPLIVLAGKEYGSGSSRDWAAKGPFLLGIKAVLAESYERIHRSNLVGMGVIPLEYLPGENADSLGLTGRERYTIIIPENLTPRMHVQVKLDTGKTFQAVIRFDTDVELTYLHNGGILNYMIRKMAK


Key:
Details in all cases: protein: recombinant; tags: Ni-chelate purified; hairpin with mid-helix bulge C and hexaloop
[1] = target: T1, IRP1 (iron regulatory protein 1); assay: stopped-flow fluorescence anisotropy (koff/kon); 5 uM Mn2+; kon 176, koff 9.7; 40 mM HEPES pH 7.2, 100 mM KCl, 1 mM MgCl2 (Methods; not listed in the Figure 2 legend), 5% glycerol, 2% 2-mercaptoethanol, 25 C; RNA 50 nM with IRP1 0.05-1 uM; eIF4F 0.1 uM with RNA 0.1-0.5 uM
[2] = target: T1, IRP1 (iron regulatory protein 1); assay: stopped-flow fluorescence anisotropy (koff/kon); 150 mM KCl; kon 209, koff 6.3; 40 mM HEPES pH 7.2, 100 mM KCl, 1 mM MgCl2 (Methods; not listed in the Figure 2 legend), 5% glycerol, 2% 2-mercaptoethanol, 25 C; RNA 50 nM with IRP1 0.05-1 uM; eIF4F 0.1 uM with RNA 0.1-0.5 uM
[3] = target: T1, IRP1 (iron regulatory protein 1); assay: stopped-flow fluorescence anisotropy (koff/kon); no Mn2+, 100 mM KCl; kon 400 uM-1 s-1, koff 6.2 s-1; 40 mM HEPES pH 7.2, 100 mM KCl, 1 mM MgCl2 (Methods; not listed in the Figure 2 legend), 5% glycerol, 2% 2-mercaptoethanol, 25 C; RNA 50 nM with IRP1 0.05-1 uM; eIF4F 0.1 uM with RNA 0.1-0.5 uM
[4] = target: T1, IRP1 (iron regulatory protein 1); assay: stopped-flow fluorescence anisotropy (koff/kon); 150 mM KCl; kon 39, koff 7.4; 40 mM HEPES pH 7.2, 100 mM KCl, 1 mM MgCl2 (Methods; not listed in the Figure 2 legend), 5% glycerol, 2% 2-mercaptoethanol, 25 C; RNA 50 nM with IRP1 0.05-1 uM; eIF4F 0.1 uM with RNA 0.1-0.5 uM
[5] = target: T1, IRP1 (iron regulatory protein 1); assay: stopped-flow fluorescence anisotropy (koff/kon); 5 uM Mn2+; kon 35.2, koff 7.6; 40 mM HEPES pH 7.2, 100 mM KCl, 1 mM MgCl2 (Methods; not listed in the Figure 2 legend), 5% glycerol, 2% 2-mercaptoethanol, 25 C; RNA 50 nM with IRP1 0.05-1 uM; eIF4F 0.1 uM with RNA 0.1-0.5 uM
[6] = target: T1, IRP1 (iron regulatory protein 1); assay: stopped-flow fluorescence anisotropy (koff/kon); no Mn2+, 100 mM KCl; kon 51.5 uM-1 s-1, koff 7.0 s-1; 40 mM HEPES pH 7.2, 100 mM KCl, 1 mM MgCl2 (Methods; not listed in the Figure 2 legend), 5% glycerol, 2% 2-mercaptoethanol, 25 C; RNA 50 nM with IRP1 0.05-1 uM; eIF4F 0.1 uM with RNA 0.1-0.5 uM

Binder	Kd [1] [nM]	Kd [2] [nM]	Kd [3] [nM]	Kd [4] [nM]	Kd [5] [nM]	Kd [6] [nM]
GUUCUUGCUUCAACAGUGUUUGAACGGAAC (structured_RNA) [FRT IRE-RNA, fluorescein labeled (FIFRT IRE-RNA)]	55 ± 2.7	30 ± 0.7	15.5 ± 0.5	–	–	–
CCUCAUCUUUGUCAGUGCACAAAAUGGCG (structured_RNA) [ACO2 IRE-RNA, fluorescein labeled (FIACO2 IRE-RNA)]	–	–	–	190 ± 9	217 ± 7.6	136 ± 2.9
